Laboratory results published in patent US20080311034A1 (published 2008).

What was measured:
[1] = biological target: T1, recombinant polyhistidine tagged mouse FcγRIV (R&D Systems) (mouse, UniProt A0A0B4J1G0 21-203); test: ELISA, His-tagged mouse receptor captured on copper-coated plate
T1 construct: Bought
T1 sequence: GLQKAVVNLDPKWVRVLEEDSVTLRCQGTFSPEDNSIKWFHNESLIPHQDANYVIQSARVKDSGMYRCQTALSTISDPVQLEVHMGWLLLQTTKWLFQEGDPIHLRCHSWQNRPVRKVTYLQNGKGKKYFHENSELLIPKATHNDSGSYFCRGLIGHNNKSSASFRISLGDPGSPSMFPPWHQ
Protocol: (§1) Commercially-available recombinant polyhistidine tagged mouse FcγRI, FcγRII, FcγRIII, and FcγRIV (R&D Systems) were diluted to 1 μg/ml in PBS and 100 μl/well was captured onto copper-coated plates (Pierce) overnight at 4° C. Plates were washed three times with wash buffer (0.15M NaCl, 0.02% Tween 20). Non-specific binding was blocked using 200 μl/well SuperBlock (Pierce) for 15 minutes at room temperature. Plates were washed three times as above. […] Plates were washed three times as above to remove unbound mAb. CNTO 860 variants that bound to plated receptors were detected using 100 μl/well HRP-labeled goat F(ab′)₂ anti-human IgG F(ab′)₂ (Jackson ImmunoResearch) diluted 1:5,000 in PBS incubated at room temperature for 1 hour. Plates were washed five times using wash buffer as above, and developed using 100 μl/well TMB Stable Stop substrate (Fitzgerald Industries) stopped with 0.5M HCl. Absorbance was detected at 450 nm.
(§2) All binding assays were in an ELISA format, with recombinant soluble receptor captured on coated EIA plates.

[2] = biological target: T2, recombinant polyhistidine tagged mouse FcγRII (R&D Systems) (mouse, UniProt P08101 40-217, limits assumed); test: as above
T2 construct: Bought; also called FcRII
T2 sequence (looked up): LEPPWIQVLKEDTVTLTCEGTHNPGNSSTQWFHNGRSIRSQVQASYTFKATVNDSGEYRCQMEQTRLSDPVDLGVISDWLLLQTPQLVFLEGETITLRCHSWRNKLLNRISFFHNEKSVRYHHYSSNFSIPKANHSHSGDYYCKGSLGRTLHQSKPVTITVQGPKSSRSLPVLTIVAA
Protocol: as §1, §2

[3] = biological target: T3, recombinant polyhistidine tagged mouse FcγRIII (R&D Systems) (mouse, UniProt P08508 31-215); test: as above
T3 construct: Bought
T3 sequence (looked up): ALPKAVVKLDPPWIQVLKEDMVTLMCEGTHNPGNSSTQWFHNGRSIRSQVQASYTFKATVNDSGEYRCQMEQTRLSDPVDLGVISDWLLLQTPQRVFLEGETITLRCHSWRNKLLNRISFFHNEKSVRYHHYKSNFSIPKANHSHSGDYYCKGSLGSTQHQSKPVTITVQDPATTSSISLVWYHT
Protocol: as §1, §2

[4] = biological target: T4, recombinant polyhistidine tagged mouse FcγRI (R&D Systems) (mouse, UniProt P26151 25-297); test: as above
T4 construct: Bought; also called murine FcγRI
T4 sequence (looked up): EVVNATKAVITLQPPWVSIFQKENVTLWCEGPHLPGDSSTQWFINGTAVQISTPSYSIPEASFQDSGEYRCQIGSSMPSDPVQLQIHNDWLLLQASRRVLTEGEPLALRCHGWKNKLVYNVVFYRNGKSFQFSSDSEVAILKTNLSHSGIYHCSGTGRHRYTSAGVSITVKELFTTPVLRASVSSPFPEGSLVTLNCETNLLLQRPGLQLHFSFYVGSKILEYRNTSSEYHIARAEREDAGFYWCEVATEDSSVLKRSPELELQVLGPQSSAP
Protocol: as §1, §2

[5] = biological target: FcγRIIIa on NK cells of human PBMC (human, UniProt P08637 17-254); test: cell-based or functional assay
[6] = biological target: T5, recombinant human His-tagged FcγRIIIa (extracellular domain made at Centocor) (human, UniProt P08637 17-208); test: ELISA, His-tagged FcγRIIIa captured on HisGrab plate
T5 construct: extracellular domain; also called CD16a; recombinant, soluble, human FcγRIIIa
Protocol: (§3) FcγRIIIa (CD16a) ELISA—A human FcγRIIIa binding assay was done in ELISA format similar to the assay for FcγRI above. 50 μl of a 2 μg/ml solution of recombinant human His-tagged FcγRIIIa (extracellular domain made at Centocor) in ELISA buffer (PBS, 4 mg/ml BSA, 0.01% Tween-20) was added to each well of HisGrab 96 well plates (Pierce #15142) (Powers G., Notebook 10378, 19-23). The plate was incubated for 3 hours at room temp. The plates were blocked with 200 μl of Starting Block (Pierce #15142) for 30 min, and then washed 3× with 300 μl of wash buffer (PBS, 0.01% Tween-20) on a plate washer. Serial dilutions of the CNTO 860 test samples were made in Starting Block buffer and 50 μl per well of each titration were added in duplicate to the FcγRIIIa-coated plates. The plates were incubated for 1 hour. The plates were washed 3× with 300 μl of wash buffer on a plate washer. 50 μl of a 1:10,000 dilution of HRP-labeled goat F(ab′)2 anti-human IgG F(ab′)2 (Jackson Immunoresearch # 109-036-097) in Starting Block buffer was added to each well. The plates were incubated for 30 minutes. The plates were washed 3× with 300 μl of wash buffer on the plate washer. 50 μl per well TMB substrate (RDI #RDI-TMBSU-1L) was added to each well and developed for 3-5 minutes. The reaction was stopped by adding 100 μl 10.2 N sulfuric acid. The plates were read at OD450 on an Envision plate reader. Antibody concentration vs OD450 values were graphed for each CNTO 860 variant and the antibody concentration needed to achieve an OD450 reading of 0.14 established by interpolation within each data curve.

[7] = biological target: T6, recombinant human FcγRIIb (R&D Systems #1875-CD-050) (human, UniProt P31994 46-217, limits assumed); test: AlphaScreen
T6 construct: Bought; also called CD32b; recombinant, soluble, human FcγRIIb
T6 sequence (looked up): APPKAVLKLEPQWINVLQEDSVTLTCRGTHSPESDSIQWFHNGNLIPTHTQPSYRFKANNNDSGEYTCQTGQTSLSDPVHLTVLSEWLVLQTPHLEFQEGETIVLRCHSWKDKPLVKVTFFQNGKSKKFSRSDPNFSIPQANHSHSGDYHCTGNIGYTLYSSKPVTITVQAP
Protocol: FcγRIIa (CD32a) AlphaScreen—Nickel acceptor beads (Perkin Elmer #6760619C) were diluted 1:50 in assay buffer (PBS, pH 7.4, 4 mg/ml BSA, 0.01% Tween-20), and 27.5 μl were added to each well of a Nunc V-bottom polypropylene plate (VWR # 62409-108) (Powers G., Notebook 9006, pp. 169-175, 182-185). A 2.0 μg/ml solution of recombinant human His-tagged FcγRIIa (R&D Systems #1330-CD-050) was prepared in assay buffer and 27.5 μl added to each well of a separate Nunc V bottom polypropylene plate. Titrations of test Abs were prepared in the Nunc V bottom polypropylene plate starting at 30 μg/ml. A 2 μg/ml solution of biotinylated goat F(ab′)₂ anti-human IgG F(ab′)₂ (Jackson Immunoresearch #109-066-097) was prepared in assay buffer and 27.5 μl added to each well of another Nunc V bottom polypropylene plate. A 1:50 dilution of streptavidin donor beads (PerkinElmer # 6760002) was prepared in assay buffer and 27.5 μl added to each well of another Nunc V bottom polypropylene plate. A volume of 5 μl of each reagent was added to the corresponding quadrants of a low-volume, non-binding white 384-well plate (Corning # 3673) in the following order: acceptor beads, FcγRIIa, test Ab, biotinylated anti-human IgG F(ab′)₂, and streptavidin donor beads. The plates were incubated for 30 minutes with shaking and the O.D.s determined using an Envision plate reader.
FcγRIIb (CD32b) AlphaScreen—The assay was performed as described above for FcγRIIa except that FcγRIIa was replaced with FcγRIIb (R&D Systems #1875-CD-050).

[8] = biological target: T7, recombinant human His-tagged FcγRI (extracellular domain, R&D Systems #1257-FC-050) (human, UniProt P12314 16-292); test: ELISA
T7 construct: extracellular domain; Bought; also called CD64; recombinant, soluble, human FcγRI
Protocol: FcγRI (CD64) ELISA —50 μl of a 1 μg/ml solution of recombinant human His-tagged FcγRI (extracellular domain, R&D Systems #1257-FC-050) in ELISA buffer (PBS, pH 7.4, 4 mg/ml BSA, 0.01% Tween-20) was added to each well of HisGrab 96 well plates (Pierce #15142) (Powers G., Notebook 9006, pp. 166-168, 180-181). The plate was incubated with shaking for 3 hours. The plates were washed 3× with 300 μl of wash buffer (PBS, 0.01% Tween-20) on a plate washer. Serial dilutions of the CNTO860 antibody Fc-variant samples were made in ELISA buffer and 50 μl per well of each titration were added in duplicate to the FcγRI-coated plates. The plates were incubated with shaking for 1 hour. The plates were washed 3× with 300 μl of wash buffer on a plate washer. 50 μl of a 1:10,000 dilution of HRP-labeled goat F(ab′)₂ anti-human IgG F(ab′)₂ (Jackson Immunoresearch # 109-036-097) in ELISA buffer was added to each well. The plates were incubated with shaking for 30 minutes. The plates were washed 3× with 300 μl of wash buffer on the plate washer. 50 μl per well TMB substrate (RDI #RDI-TMBSU-1L) was added to each well and developed for 5 minutes. The reaction was stopped by adding 100 μl 0.2 N sulfuric acid. The plates were read at OD450 on an Envision plate reader.
as §3, with “minutes.” for “minutes. The plates were washed 3× with 300 μl of wash buffer on the plate washer. 50 μl per well TMB substrate (RDI #RDI-TMBSU-1L) was added to each well and developed for 3-5 minutes. The reaction was stopped by adding 100 μl 10.2 N sulfuric acid. The plates were read at OD450 on an Envision plate reader. Antibody concentration vs OD450 values were graphed for each CNTO 860 variant and the antibody concentration needed to achieve an OD450 reading of 0.14 established by interpolation within each data curve.”

T5 sequence (P08637 17-208): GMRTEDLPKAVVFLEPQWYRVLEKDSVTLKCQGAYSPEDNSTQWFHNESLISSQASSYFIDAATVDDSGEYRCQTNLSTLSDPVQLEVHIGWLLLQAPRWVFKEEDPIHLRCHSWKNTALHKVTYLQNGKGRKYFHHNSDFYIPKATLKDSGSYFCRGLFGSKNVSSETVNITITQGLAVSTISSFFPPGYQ
T7 sequence (P12314 16-292): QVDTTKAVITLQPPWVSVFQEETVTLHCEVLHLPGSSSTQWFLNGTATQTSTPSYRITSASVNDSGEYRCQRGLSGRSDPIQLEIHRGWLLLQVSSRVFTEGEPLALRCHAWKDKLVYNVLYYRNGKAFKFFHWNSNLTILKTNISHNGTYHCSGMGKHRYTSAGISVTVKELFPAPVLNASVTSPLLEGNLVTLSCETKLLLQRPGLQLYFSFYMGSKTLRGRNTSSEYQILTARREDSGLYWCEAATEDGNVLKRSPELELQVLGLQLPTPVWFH
FcγRIIIa on NK cells of human PBMC, sequence (P08637 17-254): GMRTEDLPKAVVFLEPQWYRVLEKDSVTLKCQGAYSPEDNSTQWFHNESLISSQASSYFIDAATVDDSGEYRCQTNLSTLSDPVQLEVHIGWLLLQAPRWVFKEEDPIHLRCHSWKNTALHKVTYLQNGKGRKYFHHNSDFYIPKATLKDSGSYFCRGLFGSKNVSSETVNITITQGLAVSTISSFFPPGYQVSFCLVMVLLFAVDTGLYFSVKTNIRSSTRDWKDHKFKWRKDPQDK

B1: CHO-CNTO 860 I332E/V264I (antibody, human IgG1, kappa)
heavy: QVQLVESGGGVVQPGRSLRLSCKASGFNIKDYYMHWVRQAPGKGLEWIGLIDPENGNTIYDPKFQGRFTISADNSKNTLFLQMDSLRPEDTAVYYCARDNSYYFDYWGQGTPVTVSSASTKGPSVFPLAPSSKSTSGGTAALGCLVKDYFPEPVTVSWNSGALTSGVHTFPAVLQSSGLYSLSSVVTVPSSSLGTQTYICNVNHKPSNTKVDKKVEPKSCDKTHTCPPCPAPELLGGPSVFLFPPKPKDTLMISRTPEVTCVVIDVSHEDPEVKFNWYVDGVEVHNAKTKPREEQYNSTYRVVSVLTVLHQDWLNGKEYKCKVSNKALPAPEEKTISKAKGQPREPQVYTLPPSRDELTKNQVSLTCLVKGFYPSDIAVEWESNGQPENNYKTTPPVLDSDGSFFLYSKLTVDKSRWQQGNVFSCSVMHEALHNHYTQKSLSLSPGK
light: DIQMTQSPSSLSASVGDRVTITCKASQDIRKYLNWYQQKPGKAPKLLIYYATSLADGVPSRFSGSGSGTDYTFTISSLQPEDIATYYCLQHGESPYTFGQGTKLEITRTVAAPSVFIFPPSDEQLKSGTASVVCLLNNFYPREAKVQWKVDNALQSGNSQESVTEQDSKDSTYSLSSTLTLSKADYEKHKVYACEVTHQGLSSPVTKSFNRGEC
modifications: Heavy chain N297 carries the CHO-type N-linked glycan (about 95% fucosylated); not carried by the letters.
notes: IgG1/kappa Fc variant; transiently expressed in CHO cells (p4187/p4146); EU numbering; also called V264I/I332E (CHO cell-derived); copies: 2 + 2
Question: Which results are given for B1?
Answer: ECOD1 (concentration required for an O.D. value of 1.0) [1]: 8 ng/mL; ECOD1 (concentration required for an O.D. value of 1.0) [2]: 1700 ng/mL; ECOD1 (concentration required for an O.D. value of 1.0) [3]: 2000 ng/mL; ECOD1 (concentration required for an O.D. value of 1.0) [4]: 25800 ng/mL; EC25 (ng/ml), ADCC of HCT116 cells by human PBMC [5]: 1 ng/mL; concentration (ng/ml) required for an O.D. value of 0.14 [6]: 900 ng/mL

B2: CNTO 860 A330I (antibody)
heavy: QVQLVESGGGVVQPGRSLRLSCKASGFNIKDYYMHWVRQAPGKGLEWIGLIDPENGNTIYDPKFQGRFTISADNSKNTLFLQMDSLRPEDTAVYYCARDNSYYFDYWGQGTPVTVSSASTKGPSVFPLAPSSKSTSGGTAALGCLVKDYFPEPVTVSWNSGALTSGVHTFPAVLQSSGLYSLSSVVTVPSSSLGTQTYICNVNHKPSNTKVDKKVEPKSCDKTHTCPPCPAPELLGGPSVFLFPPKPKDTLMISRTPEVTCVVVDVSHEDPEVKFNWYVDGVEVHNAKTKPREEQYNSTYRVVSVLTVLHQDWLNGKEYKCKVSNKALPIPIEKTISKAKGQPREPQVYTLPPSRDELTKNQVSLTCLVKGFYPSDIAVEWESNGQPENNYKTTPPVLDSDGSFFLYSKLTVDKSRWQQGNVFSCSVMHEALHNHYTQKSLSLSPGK
light: DIQMTQSPSSLSASVGDRVTITCKASQDIRKYLNWYQQKPGKAPKLLIYYATSLADGVPSRFSGSGSGTDYTFTISSLQPEDIATYYCLQHGESPYTFGQGTKLEITRTVAAPSVFIFPPSDEQLKSGTASVVCLLNNFYPREAKVQWKVDNALQSGNSQESVTEQDSKDSTYSLSSTLTLSKADYEKHKVYACEVTHQGLSSPVTKSFNRGEC
modifications: N-linked glycan at Asn297 of the heavy chain (fucose content depends on host cell, CHO or YB2/0); not carried by the letters
notes: also called A330I variant; A330I single mutant; copies: 2 + 2
Question: For B2, which “fold change in binding against WT (reduced)” value [7] is on record?
Answer: 500 fold

B3: CNTO 860 I332E (antibody)
heavy: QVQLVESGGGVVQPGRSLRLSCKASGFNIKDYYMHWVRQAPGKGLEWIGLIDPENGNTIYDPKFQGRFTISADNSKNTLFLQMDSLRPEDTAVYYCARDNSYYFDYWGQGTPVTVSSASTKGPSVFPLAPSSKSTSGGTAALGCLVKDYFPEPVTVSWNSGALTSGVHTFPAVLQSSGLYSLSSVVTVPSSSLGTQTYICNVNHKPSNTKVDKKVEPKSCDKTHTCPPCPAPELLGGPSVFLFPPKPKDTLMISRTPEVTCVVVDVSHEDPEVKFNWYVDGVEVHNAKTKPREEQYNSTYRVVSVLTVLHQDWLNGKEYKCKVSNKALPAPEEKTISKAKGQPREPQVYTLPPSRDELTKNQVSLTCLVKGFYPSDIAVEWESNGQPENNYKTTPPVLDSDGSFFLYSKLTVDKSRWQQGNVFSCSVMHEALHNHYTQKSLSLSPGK
light: DIQMTQSPSSLSASVGDRVTITCKASQDIRKYLNWYQQKPGKAPKLLIYYATSLADGVPSRFSGSGSGTDYTFTISSLQPEDIATYYCLQHGESPYTFGQGTKLEITRTVAAPSVFIFPPSDEQLKSGTASVVCLLNNFYPREAKVQWKVDNALQSGNSQESVTEQDSKDSTYSLSSTLTLSKADYEKHKVYACEVTHQGLSSPVTKSFNRGEC
modifications: N-linked glycan at heavy chain Asn297 (host cell not specified in these sentences); not carried by the letters
notes: also called I332E variant; I332E single mutant; copies: 2 + 2
Question: For B3, which “fold change in binding against WT (enhanced)” value [8] is on record?
Answer: 2 fold

B4: CNTO 860 S239D/I332E (antibody, human IgG1, kappa)
heavy: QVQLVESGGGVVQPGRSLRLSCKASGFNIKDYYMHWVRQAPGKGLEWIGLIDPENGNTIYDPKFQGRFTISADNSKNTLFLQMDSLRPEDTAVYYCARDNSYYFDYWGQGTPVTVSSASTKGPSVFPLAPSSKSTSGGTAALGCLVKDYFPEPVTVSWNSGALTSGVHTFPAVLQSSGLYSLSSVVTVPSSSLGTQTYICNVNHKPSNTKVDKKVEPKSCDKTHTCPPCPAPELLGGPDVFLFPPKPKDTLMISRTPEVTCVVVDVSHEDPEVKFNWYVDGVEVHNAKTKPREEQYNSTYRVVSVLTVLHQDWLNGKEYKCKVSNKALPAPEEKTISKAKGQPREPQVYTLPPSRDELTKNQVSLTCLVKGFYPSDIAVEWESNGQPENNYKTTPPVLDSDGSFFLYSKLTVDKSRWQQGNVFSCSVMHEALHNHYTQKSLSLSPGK
light: DIQMTQSPSSLSASVGDRVTITCKASQDIRKYLNWYQQKPGKAPKLLIYYATSLADGVPSRFSGSGSGTDYTFTISSLQPEDIATYYCLQHGESPYTFGQGTKLEITRTVAAPSVFIFPPSDEQLKSGTASVVCLLNNFYPREAKVQWKVDNALQSGNSQESVTEQDSKDSTYSLSSTLTLSKADYEKHKVYACEVTHQGLSSPVTKSFNRGEC
modifications: N-linked glycan at Asn297 of the heavy chain (fucose content depends on host cell, CHO or YB2/0); not carried by the letters
notes: also called S239D/I332E double mutant; copies: 2 + 2
Question: For B4, which “fold change in binding against WT (enhanced)” value [7] is on record?
Answer: ~6 fold
